In the DeepSol protein solubility set:

Test: soluble on expression in E. coli; label from the status in PepcDB or PDB records

Row | Sequence | soluble on expression in E. coli
1 | MSLQRSYCYQLTRRFCQSHEHTKLAKWLNINSKLNPFRPDPPVGGSPFLHGVGDEDKPVYIPQDVRVGHTFVVGTTRVGKTRLASILINQDIRNGDAVIVVDPKGDQDLVRDMVAACKVSGRTEDFKIVHLGFPEQSAQYNPLKKFDQISEVATRITDAISAEGEGKQFAAFAWKYVNIVAICLEEMNQPITYQTIAFYISRLEQLLMSYADNILPNHYLNYHQEIDDIIEEHDSKIGKNNKTKSPMERHQAVIQYIKDHINKTIKSNNAEALHDQILIDLYDAAIMDKHYYDKITASVGPVLSEINKSNASKILSSKAQPGDIELMDVIKNKKVLYIGLDSLTNPNIAQAVGKAFLSDLVSTAGKIYKEEGHHHHHH | soluble
2 | MGSDKIHHHHHHMAGVSPLSNRWSKQVLSNFEQAASTYNSQAQLQRAVAWRLARQCARQHIPAGFWVDLGSGTGLMADALEACNPHQAVLRVDGCHEMLKHHHHSSQTLLWDLNLGVPSWPQLPSLLASSFALHWLINPLERLHEWMAALTPEGWLALALPVEGSFPQWHQAAATAGVSCTALPFPSQASLLDVLSSNNIRHQQLHQFTQQSPEVFQLLKPMRQIGAQASPCSTMGVGNWRHLKQAWPRCQNSGDAQLTWLIQLLLIQR | not soluble
3 | MSDKDDLIVAGVNQKDKGIWRDFYDRYYAALCSYVEKILFLTDAVEDLVQEVFISVWEGKRTFSDSRELTNYLYRACYNNALLYIRNHQIHDSILNGLPQEEDFEDEEMLYALTVKEEAIRQLYFYIEELPAEQRRIILLRIEGHSWDEIASRLGVSINTVKTQKSRSYKFLREKLANSSYSVLLALIFY | not soluble
4 | MGSDKIHHHHHHSHKYTAITPGVEWLDTNNEKINAHGGGILYHEGIYYWYGECKSDSTYWNPNVPGWECYRTEAGGVNCYSSKDLLNWKYEGLVLQPEISDTQSDLHPSKVLERPKVIYNDKTKKFVMWLHVDSDDYNKAAAGVAVSDSPTGVFTYLGSMHPNGQISRDMTLFKDDDGKAYHIYSSEQNSTLYISLLSDDYLKPSGTFTRNFAGKFREAPAVFKHNGLYYVISSGCTGWSPNEAEYAVATQILGPWTVKGNPCVGKDADKTFYGQSTHVLPIQGKKDAYIAMFDKWNKTDLIHSTYIWLPIQFREDGSMAIQWLDSWSPDTYEF | not soluble
5 | MIDTHIHSDTRGLEDLELMAMCLDGVITLAHDPFEMKNIKVWEAHVEKLLINELERAKKVGLNLFICVGMHPRAIPPEIDEALDKIKSYINYNSRVVGIGEIGLEKATKEEKEVFIKQLLLAEELNMPAVVHTPRRNKEEVTKIILDEISTLNLKNRDIVIEHCNKETTKWVLDEEFYVGLTIQPGKLTPLEAVEIVKEYKDFADKILLNSDCSSNASDVLAVPRTVLKMKINGIEKDVIYKVAHKNAVNLFGLDI | not soluble
6 | AIAEVLRPPLININGRIYRKNPVQEETYEEEEEDCSYSEAAVDQCLDEPCDAHNIEQTDRGFRCALDVPSVLYKYIIGKKGETRRRLESETKTSINIPKQGVEGQIVVTGAHRPSVSSAVTRIEVLIDSFRRKQPFTHFLSFALNHAQVREGFLRFREEVLEHCSQDSGVDVSIFQNPDKLHLTIGTLVLLNQQEVTRANELLHQCQDTIREITGAEALPVEVRGVEYMNDDPSMVDVLYAKVSVQDGSDRLQQISDRLVECFVSAGLMERERDRVKIHATVMNTLFRRDPSAEDRGAPARANPRDREAFNGKNILQMFGDFYFGAFELNSVQISQRFSTDSSGYYSSAGHITFS | soluble
7 | MGHHHHHHSHMSLKGKRIGFGFTGSHCTYEEVMPHLEKLIAEGAEVRPVVSYTVQSTNTRFGEGAEWIKKIEEITGFKAINSIVGAEPLGPKIPLDCMVIAPLTGNSMSKFANAMTDSPVLMAAKATLRNGKPVVLAVSTNDALGLNGVNLMRLMATKNIYFVPFGQDAPEKKPNSMVARMELLEDTVLEALQGKQLQPVVVEKFRYMN | soluble
8 | MRAAFRTLGCKVNQVETEALLGFLKALEPEVVPLEAGGADLVVINSCAVTTTAEADTRKEVRRARRYNPHAFIVVTGCYAELAPEVLKELGADAVVPNARKAELPRVILERFGLPSDPITTPPNEFWGAGERGLLNSRVRAFLKVQDGCQAGCAYCIIPRLRGKERHRDHREALAEAEALLRMGIKEIVLTGVRLGSYKGHPRGLAGLVEDLYHLGAKVRLSSIEPEDTGEDLLKVIGRYAPEVRPHLHLSLQTGSDRLLKLMGRRYDKAYYRELVQRAYDLIPGFALTTDVIAGLPTETEEEHRETLAFLEELRPTRVHAFTYTPRPKTRAASMPQVPPEVRKRRTKELIALAQRLAEERIRPRLGERVEVLVERVQGGEALGHTPDYYEARLEGEARPGETVWARVHGVEGYVLLGRVEGVKEGARGPLELPVR | soluble
9 | MVLGKPQTDPTLEWFLSHCHIHKYPSKSTLIHQGEKAETLYYIVKGSVAVLIKDEEGKEMILSYLNQGDFIGELGLFEEGQERSAWVRAKTACEVAEISYKKFRQLIQVNPDILMRLSAQMARRLQVTSEKVGNLAFLLVTGRIAQTLLNLAKQPDAMTHPDGMQIKITRQEIGQIVGCSRETVGRILKMLEDQNLISAHGKTIVVYGTR | soluble
10 | MGISRDSWHKRYKTGATQPVPHKKRKFELGRPAANTKIGAHRVRLVRTRGGNEKYRALRLDSGNFSWASEQTTRKTRIVDTMYNATNNELVRTKTLVKGAIISVDAAPFRQWYEAHYALPLARKKNAKLSEEDNAILNKKRSHHTMKKYTERQKTAAVDALLIEQFNTGRLLARISSSPGQVGQANGYILEGKELDFYLRKIRAKKAK | not soluble
11 | MGSDKIHHHHHHAQTWENVHFNVDWQMNVPLNSNFADKFSGWGMNFEGKYDLTPYWAIGAFLNFHTNHRYVDRRTIPLTPTASLTTDQQQSAFQLPFGISVSYKLPDNRYVKPYFGVKSGAMYSQNSIYNNLVQWYERPWGFYVSPELGMDIHPVPYQRLGFHVAVYYSYATNKTDILTYSEDGRNSMGVRVGVCF | not soluble
12 | MAHHHHHHMQLSRYSPPPSSSSSSLLSTVMQAKDVVTRLGPSERFPGLCGVFLTKPIKKFHPIEVLPTAASAAATTTTAATADSSAERPDASRSPTSAIVSQAPPFVLNLAFAPRHSISLRRFLALRHMFSTSAYLHVATEDGWYLVAPSSAAPLCPDVTGLQAWCCRHHHRYLKHAATAVTAATSSSTPSSRAPRCSTHTGIAKLEAALDNGEELSEEQLQRLAAQEKAFFAHTPENEEADIDDDTDETDDMPAVREPRHPLSQKTAAPTAETLRKRSAGAPASAFGLSPPLIPEAHLFDINDGVAWLLPPSDDLANHEYWKSHRQRMALYESTGDADAAEQREALLATLRADPAIAQHLSSEQELYAAAEALFQALKHKANVTLNVDADTGLLTLVPLRDLHAGEELLLHYGREWWTGRLLFSLLLSVSDAEMPQIRWIEQLFDHAVDRSEPFPLLIVAHEQRKRPRRGCSGGAKVRKGLKNESSGDGDEQQQQSTQCASLTKPHGDSAETSSTTAMTAELPVSQRKLGRAVLYNTVTHKRATDAAVLAFAVRRSCIEPCFLSRLLAGDAAGGVEPVFYLSEPDKEVPMRVLRRVLLASLRGTTASAQRSIPHKDESASVVAGSAVADTAAAVVDQGAPPQTSTNTGGDGDDGDDAVFSV | soluble
13 | MSLKISKLKKNVVLKNGTIIDPFNNYEKKGDIHIENGKIKAVGKIPTPKSSEIIDCKNLNITHGFFDLHVHFREPGGEDKEDLNSGSLAALAGGFTGVCTMPNTNPPIDSPESIRYIIDRSEECPIYIYPIGSITKSQEGKELTEMGAMLSQGAVAFSDDGLPISDAGVMYNALDYSSMFDVPIINHAEDECLKQDSVMHEGEVSTHLGLPGSPDITESNMVFRDLELSIRAGARIHIPHVSSEKSVNHIKTMKKKSDRITAEVSPHHIFFCDEDLYSFDTNLKVAPPIRTKNDRKALIDALKNGIIDCIATDHAPHTIEEKEGTFDIAPFGMIGLESCFGAVNKVLTKDKKISHLELIKLLTVNPRKIMKLNQDLFKEGTNAEIAIYDPNIEWKFSLENIYSKSNNSPLFKEGHHHHHH | not soluble
14 | NGQSDVKHIGILQYVEHPSLTATRKGFIKELAKEGYKDGKNIKIEYKNAQGDQSNIQSISEKLIKDNKLVLGIATPAAQSLTTVSTETPILFTAVTDPVSAELVKSMKKPEGLATGTSDMSPIKKQVSLLRKVMPKVKRVGIMYTTSERNSEVQVKQAKKIFQEAGIKTSVKGISSTNDVQDTAKSLMSKTEVIFVPTDNIIASSVTLLGNLSKELKVPVVGGSADMVPSGLLFSYGADYEALGRQTARQAVKILKGKDVAKVPSEYPQNLKVVVNEDMAKELGIDVSSIK | not soluble
